Source: the supplement of paper PMC10065799, “High-throughput profiling of sequence recognition by tyrosine kinases and SH2 domains using bacterial peptide display” (eLife, 2023)

Assays:
Grb2 SH2 = Grb2 SH2 (UniProt P62993); assay: SH2 binding enrichment of the phosphorylated peptide, bacterial display (enrichment ratio); higher = better substrate or ligand; peptides without Tyr show the background
c-Src SH2 = assay: as above
SHP2-C SH2 = assay: as above
EPHB1 = EPHB1 (UniProt P54762); assay: phosphorylation enrichment, bacterial display (enrichment ratio); higher = better substrate or ligand; peptides without Tyr show the background
c-Src = assay: as above
Hck = Hck (UniProt P08631); assay: as above
Fer (mouse) = assay: as above
AncSZ = assay: as above
Fes = Fes (UniProt P07332); assay: as above
MERTK = MERTK (UniProt Q12866); assay: as above
FGFR3 = FGFR3 (UniProt P22607); assay: as above
c-Abl (mouse) = assay: as above
EPHB2 = EPHB2 (UniProt P29323); assay: as above
Jak2 = Jak2 (UniProt O60674); assay: as above
FGFR1 = FGFR1 (UniProt P11362); assay: as above
Fyn = Fyn (UniProt P06241); assay: as above
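Wherever SH2 binding enrichment of the phosphorylated peptide, bacterial display is given: peptide library displayed on the E. coli surface as eCPX fusions, selected cells deep-sequenced, score is each peptide's frequency after selection divided by its frequency in the input.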
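Wherever phosphorylation enrichment, bacterial display is given: 11-residue human phosphosite peptides and single-mutation variants displayed on the E. coli surface, counted by deep sequencing, each peptide's frequency after selection divided by its frequency in the unselected input library; frequency after pTyr selection over input frequency; kinase dosed for 20-30% of maximal phosphorylation in three min.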

Chain of EPHB1 (P54762 whole entry, looked up): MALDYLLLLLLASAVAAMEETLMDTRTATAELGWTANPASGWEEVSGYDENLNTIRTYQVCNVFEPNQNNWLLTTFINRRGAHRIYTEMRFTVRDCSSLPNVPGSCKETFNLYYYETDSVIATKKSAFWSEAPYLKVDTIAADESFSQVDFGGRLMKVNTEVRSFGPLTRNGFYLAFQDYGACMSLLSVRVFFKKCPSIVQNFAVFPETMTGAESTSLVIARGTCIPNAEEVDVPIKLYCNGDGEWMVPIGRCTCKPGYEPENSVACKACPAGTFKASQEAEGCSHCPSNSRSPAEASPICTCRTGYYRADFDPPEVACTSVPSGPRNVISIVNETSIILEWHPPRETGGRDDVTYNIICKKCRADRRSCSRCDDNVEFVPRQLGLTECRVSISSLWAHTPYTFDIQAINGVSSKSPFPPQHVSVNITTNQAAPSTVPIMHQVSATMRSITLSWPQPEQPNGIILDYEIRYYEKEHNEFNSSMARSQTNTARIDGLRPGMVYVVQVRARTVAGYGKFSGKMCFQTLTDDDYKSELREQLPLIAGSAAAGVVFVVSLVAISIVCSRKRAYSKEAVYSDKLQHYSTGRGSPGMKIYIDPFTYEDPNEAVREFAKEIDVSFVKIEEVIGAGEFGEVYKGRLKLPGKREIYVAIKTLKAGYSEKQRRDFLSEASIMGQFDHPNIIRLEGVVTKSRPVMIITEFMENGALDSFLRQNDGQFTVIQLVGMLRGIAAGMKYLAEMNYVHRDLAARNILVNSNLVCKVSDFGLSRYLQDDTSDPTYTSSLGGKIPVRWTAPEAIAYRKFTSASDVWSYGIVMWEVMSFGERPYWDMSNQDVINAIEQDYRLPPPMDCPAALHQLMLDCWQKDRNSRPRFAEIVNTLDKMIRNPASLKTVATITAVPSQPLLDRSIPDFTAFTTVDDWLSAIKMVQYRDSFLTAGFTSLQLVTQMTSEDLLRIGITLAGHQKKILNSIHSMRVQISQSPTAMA
Chain of MERTK (Q12866 whole entry, looked up): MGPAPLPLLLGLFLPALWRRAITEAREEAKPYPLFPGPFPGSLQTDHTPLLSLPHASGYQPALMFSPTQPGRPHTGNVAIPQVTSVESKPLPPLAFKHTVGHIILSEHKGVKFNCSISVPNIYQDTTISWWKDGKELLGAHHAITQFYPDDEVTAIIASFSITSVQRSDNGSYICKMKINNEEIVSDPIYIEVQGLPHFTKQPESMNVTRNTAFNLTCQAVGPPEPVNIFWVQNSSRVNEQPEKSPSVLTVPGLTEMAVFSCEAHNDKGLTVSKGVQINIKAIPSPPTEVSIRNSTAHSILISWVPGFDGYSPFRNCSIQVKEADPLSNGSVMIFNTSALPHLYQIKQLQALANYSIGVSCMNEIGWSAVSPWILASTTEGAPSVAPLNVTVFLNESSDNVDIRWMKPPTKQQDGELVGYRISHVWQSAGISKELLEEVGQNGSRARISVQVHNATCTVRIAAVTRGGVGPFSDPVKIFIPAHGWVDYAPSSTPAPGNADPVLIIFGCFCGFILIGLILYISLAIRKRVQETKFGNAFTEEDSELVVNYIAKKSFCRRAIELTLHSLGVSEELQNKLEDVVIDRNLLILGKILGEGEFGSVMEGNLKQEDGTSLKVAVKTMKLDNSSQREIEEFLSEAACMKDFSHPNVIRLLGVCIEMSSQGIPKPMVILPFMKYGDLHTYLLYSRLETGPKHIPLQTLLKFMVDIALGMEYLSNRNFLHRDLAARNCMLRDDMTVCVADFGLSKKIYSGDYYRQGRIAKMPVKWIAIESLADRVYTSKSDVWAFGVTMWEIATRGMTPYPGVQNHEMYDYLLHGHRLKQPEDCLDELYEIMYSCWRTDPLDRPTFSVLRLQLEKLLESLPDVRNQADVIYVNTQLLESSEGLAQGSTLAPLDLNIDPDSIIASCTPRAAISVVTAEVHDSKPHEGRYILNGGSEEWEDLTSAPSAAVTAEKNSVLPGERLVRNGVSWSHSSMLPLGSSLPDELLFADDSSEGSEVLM
Chain of Fyn (P06241 whole entry, looked up, the tested form may be a part): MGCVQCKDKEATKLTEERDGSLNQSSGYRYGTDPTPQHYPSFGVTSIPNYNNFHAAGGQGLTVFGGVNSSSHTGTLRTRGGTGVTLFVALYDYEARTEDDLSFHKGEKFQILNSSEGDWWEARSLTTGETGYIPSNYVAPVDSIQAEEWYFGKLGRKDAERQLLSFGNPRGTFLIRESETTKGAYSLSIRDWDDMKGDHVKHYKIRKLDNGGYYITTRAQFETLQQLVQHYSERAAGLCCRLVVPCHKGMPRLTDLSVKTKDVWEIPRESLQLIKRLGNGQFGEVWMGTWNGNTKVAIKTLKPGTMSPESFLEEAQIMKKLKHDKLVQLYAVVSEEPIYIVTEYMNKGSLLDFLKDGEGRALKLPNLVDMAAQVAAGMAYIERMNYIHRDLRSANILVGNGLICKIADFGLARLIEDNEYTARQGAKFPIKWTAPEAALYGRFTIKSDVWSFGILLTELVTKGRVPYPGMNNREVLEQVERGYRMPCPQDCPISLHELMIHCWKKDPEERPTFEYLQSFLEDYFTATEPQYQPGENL
Chain of FGFR1 (P11362 whole entry, looked up): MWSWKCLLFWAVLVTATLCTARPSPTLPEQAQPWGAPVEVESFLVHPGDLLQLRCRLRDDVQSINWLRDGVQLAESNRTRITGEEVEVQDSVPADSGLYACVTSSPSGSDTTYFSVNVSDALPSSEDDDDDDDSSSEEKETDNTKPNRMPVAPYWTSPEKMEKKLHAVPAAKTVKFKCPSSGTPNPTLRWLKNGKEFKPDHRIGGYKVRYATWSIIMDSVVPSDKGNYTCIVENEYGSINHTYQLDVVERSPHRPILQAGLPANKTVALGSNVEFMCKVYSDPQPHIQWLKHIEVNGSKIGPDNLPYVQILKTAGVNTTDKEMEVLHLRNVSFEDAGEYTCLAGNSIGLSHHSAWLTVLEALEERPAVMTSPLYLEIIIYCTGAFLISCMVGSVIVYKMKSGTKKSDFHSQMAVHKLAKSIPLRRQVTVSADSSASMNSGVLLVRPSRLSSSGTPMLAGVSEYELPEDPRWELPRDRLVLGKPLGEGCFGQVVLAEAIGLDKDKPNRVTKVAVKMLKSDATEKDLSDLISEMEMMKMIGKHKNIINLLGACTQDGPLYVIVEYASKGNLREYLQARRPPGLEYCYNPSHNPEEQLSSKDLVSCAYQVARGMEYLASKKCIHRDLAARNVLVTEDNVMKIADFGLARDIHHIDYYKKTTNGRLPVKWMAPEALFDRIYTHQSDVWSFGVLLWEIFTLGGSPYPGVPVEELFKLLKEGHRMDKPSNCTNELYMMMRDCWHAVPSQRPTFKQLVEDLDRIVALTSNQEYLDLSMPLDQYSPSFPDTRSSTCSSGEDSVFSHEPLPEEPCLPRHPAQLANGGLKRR
Chain of Fes (P07332 whole entry, looked up): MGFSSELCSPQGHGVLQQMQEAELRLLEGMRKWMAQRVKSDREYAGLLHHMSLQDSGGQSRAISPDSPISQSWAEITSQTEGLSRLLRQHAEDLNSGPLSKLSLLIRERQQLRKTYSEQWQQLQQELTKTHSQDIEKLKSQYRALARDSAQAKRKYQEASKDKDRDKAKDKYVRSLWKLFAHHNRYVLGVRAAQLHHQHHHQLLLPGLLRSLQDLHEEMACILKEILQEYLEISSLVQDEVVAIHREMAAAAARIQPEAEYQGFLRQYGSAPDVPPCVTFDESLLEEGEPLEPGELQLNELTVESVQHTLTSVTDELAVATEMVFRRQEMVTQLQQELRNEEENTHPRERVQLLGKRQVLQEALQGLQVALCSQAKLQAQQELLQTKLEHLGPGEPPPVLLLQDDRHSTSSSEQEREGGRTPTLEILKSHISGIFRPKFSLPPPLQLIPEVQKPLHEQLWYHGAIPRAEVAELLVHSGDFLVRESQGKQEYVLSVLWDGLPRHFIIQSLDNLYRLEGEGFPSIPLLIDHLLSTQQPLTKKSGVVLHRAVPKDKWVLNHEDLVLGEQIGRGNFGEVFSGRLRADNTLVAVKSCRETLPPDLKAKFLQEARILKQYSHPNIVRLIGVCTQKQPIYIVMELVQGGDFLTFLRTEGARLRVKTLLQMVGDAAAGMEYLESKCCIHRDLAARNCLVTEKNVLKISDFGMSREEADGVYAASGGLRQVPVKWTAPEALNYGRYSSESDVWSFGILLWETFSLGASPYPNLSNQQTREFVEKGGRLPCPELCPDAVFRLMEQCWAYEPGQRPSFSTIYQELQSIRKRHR
Chain of FGFR3 (P22607 whole entry, looked up): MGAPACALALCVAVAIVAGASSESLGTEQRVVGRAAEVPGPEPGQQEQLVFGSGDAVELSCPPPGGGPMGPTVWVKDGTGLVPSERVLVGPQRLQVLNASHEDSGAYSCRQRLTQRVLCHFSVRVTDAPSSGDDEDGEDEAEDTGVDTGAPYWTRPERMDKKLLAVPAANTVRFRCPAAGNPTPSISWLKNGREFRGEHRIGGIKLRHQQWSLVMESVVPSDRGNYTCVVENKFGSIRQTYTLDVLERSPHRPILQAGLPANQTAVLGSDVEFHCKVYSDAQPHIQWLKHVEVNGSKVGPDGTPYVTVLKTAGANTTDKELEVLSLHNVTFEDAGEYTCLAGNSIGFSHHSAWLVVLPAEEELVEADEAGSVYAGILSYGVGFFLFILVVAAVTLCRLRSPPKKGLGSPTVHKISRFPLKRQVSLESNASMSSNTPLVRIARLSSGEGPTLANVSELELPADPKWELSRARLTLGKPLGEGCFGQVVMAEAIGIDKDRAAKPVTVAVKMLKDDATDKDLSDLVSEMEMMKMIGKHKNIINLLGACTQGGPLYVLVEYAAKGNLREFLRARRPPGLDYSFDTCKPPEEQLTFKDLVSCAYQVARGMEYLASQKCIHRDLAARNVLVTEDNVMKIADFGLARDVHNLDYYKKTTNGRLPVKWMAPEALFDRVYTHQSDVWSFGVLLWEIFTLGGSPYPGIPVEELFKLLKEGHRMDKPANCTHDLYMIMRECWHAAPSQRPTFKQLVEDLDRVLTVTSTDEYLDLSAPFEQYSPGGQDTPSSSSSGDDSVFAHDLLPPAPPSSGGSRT

Sequence	SH2 binding enrichment (Grb2 SH2)	SH2 binding enrichment (c-Src SH2)	SH2 binding enrichment (SHP2-C SH2)	phosphorylation enrichment (EPHB1)	phosphorylation enrichment (c-Src)	phosphorylation enrichment (Hck)	phosphorylation enrichment (Fer (mouse))	phosphorylation enrichment (AncSZ)	phosphorylation enrichment (Fes)	phosphorylation enrichment (MERTK)	phosphorylation enrichment (FGFR3)	phosphorylation enrichment (c-Abl (mouse))	phosphorylation enrichment (EPHB2)	phosphorylation enrichment (Jak2)	phosphorylation enrichment (FGFR1)	phosphorylation enrichment (Fyn)
QFKGKYLAKHN [CASK_Y712_D710G_YF]	1.29	1.16	1.16	0.49	0.404	0.376	0.441	1.2	0.616	0.632	0.327	0.467	0.527	0.855	0.498	0.415
ATARPYSPYII [LRP5_Y1528_R1529S]	0.838	0.619	0.764	0.473	1.02	0.456	6.92	0.646	0.731	0.375	0.727	0.544	0.192	0.668	0.351	0.934
IEDPYYGNDFD [ACP1_Y133_S137F]	0.863	0.68	0.617	0.832	2.94	1.02	0.786	1.65	1.47	0.513	1.7	0.93	0.859	1.43	1.6	1.65
IGSHAYGDQYR [IDH1_Y135_R132S]	0.848	0.433	0.521	0.497	0.43	0.342	0.374	0.583	0.619	0.406	0.517	0.576	0.419	0.554	0.45	0.464
GASRRYGSGVS [NEU1_Y242_W240R]	0.852	0.383	0.565	0.429	0.41	0.437	0.43	0.582	0.539	0.509	0.439	0.437	0.48	0.436	0.393	0.384
HKLSFNEFDFE [BTK_Y40_Y40N_YF]	0.789	0.471	0.456	0.829	0.864	0.918	0.788	1.61	1.58	0.712	0.882	1.02	0.859	1.53	0.795	0.834
CLNAIYQNNLT [GSR_Y158_R153C]	4.11	0.807	0.67	0.622	1.41	1.53	3.44	0.991	0.996	0.563	0.722	0.759	0.636	0.744	0.479	0.995
HQIQSYTCEID [DES_Y331]	0.951	0.774	0.786	0.7	0.502	0.675	0.349	0.927	1.27	0.595	0.882	0.767	0.802	1.44	0.822	0.628
GIYEDYVEGLR [MYL6_Y89_T85I]	0.697	0.51	0.717	5.82	4.26	3.65	6.33	1.49	1.45	1.42	0.86	0.727	6.61	0.946	0.965	6.03
TTKGSYSLYVR [HCK_Y180_S183Y]	0.998	0.647	1.11	0.667	0.373	0.458	0.474	1.02	1.16	0.43	0.671	0.666	0.581	1.02	0.464	0.462

Continued, in another order:

SH2 binding enrichment (Grb2 SH2)	SH2 binding enrichment (c-Src SH2)	SH2 binding enrichment (SHP2-C SH2)	Sequence	phosphorylation enrichment (EPHB1)	phosphorylation enrichment (c-Src)	phosphorylation enrichment (Hck)	phosphorylation enrichment (Fer (mouse))	phosphorylation enrichment (AncSZ)	phosphorylation enrichment (Fes)	phosphorylation enrichment (MERTK)	phosphorylation enrichment (FGFR3)	phosphorylation enrichment (c-Abl (mouse))	phosphorylation enrichment (EPHB2)	phosphorylation enrichment (Jak2)	phosphorylation enrichment (FGFR1)	phosphorylation enrichment (Fyn)
0.864	0.539	0.757	DIDKIYVRTGI [PIK3CA_Y355]	0.697	0.528	0.529	0.525	0.975	0.934	0.33	0.772	0.713	0.593	0.878	0.518	0.458
0.937	0.657	0.88	LNWIFYKDQTG [RS1_Y166_YF]	0.611	0.567	0.239	0.54	0.977	1.72	0.468	0.932	0.843	0.306	1.29	0.27	0.48
1.06	1.35	1.19	SGPRHYTIAAL [TTR_Y125_R124H]	0.516	0.455	0.468	0.438	0.59	0.66	0.464	0.509	0.524	0.51	0.525	0.404	0.455
0.674	0.41	0.535	PSPTKYSLSPS [RANBP2_Y785_R784K]	0.437	0.514	0.354	0.534	1.19	0.669	0.473	0.471	0.553	0.492	0.725	0.515	0.318
0.853	0.536	0.722	FHKALYTVRTF [PDE6C_Y266_S270T_YF]	0.567	0.729	0.67	0.427	0.914	1.02	0.523	0.691	0.838	0.529	0.907	0.582	0.581
